Source: patent US20240084042A1 (Genentech, published 2024)

Assays:
[1] = target: cyano KLK7 (SEQ ID NO: 6 plus a C-terminal FLAG tag) (cynomolgus monkey, UniProt P49862 30-253 (human entry)); assay: cell-based or functional assay
[2] = target: human KLK7 (SEQ ID NO: 4 plus a C-terminal FLAG tag) (human, UniProt P49862 30-253); assay: cell-based or functional assay
human KLK7 = target: T1, human KLK7 (human, UniProt P49862 30-253); assay: SPR BIAcore T200, antibody on protein A chip, 25 C
T1 construct: Antigen injected in SPR; also called hu KLK7; huKLK7
T1 sequence (P49862 30-253): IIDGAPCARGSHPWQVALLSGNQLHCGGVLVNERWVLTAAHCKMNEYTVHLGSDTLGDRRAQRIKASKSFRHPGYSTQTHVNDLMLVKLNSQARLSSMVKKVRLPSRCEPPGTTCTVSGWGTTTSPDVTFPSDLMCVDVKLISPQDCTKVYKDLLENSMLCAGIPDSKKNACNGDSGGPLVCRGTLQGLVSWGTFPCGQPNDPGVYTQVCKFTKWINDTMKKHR
Description: (§1) The binding affinity of the antibodies was determined by BIAcore™ T200 machine. Rabbit antibodies were recombinantly expressed. For kinetics measurements, antibodies were captured on research grade protein A chip (GE Healthcare, USA) to achieve approximately 300 RU. Ten-fold serial dilutions of human and cyano KLK7 were injected in HBS-P buffer at 25° C. with a flow rate of 30 μL/min. Association rates (ka) and dissociation rates (kd) were calculated using a 1:1 Langmuir binding model (BIAcore™ T200 Evaluation Software version 2.0). The equilibrium dissociation constant (KD) was calculated as the ratio kd/ka.

cynomolgus monkey KLK7 = target: T2, cynomolgus monkey KLK7 (cynomolgus monkey, UniProt P49862 30-253 (human entry)); assay: SPR BIAcore T200, antibody on protein A chip, 25 C
T2 construct: Antigen injected in SPR; also called Cy KLK7; cyno KLK7
T2 sequence (P49862 other isoform, or with tags, fused parts or gaps): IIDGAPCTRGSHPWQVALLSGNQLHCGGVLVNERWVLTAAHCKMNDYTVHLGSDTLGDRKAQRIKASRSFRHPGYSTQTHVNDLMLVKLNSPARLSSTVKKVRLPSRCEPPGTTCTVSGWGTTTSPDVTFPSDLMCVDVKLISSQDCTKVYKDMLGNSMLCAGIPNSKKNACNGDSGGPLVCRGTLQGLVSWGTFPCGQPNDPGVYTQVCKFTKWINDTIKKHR
Description: as §1

huKLK4 = huKLK4 (human, UniProt Q9Y5K2 31-254, limits assumed); assay: SPR (BIAcore T200), as for Table 1
huKLK4, sequence (Q9Y5K2 31-254 limits assumed): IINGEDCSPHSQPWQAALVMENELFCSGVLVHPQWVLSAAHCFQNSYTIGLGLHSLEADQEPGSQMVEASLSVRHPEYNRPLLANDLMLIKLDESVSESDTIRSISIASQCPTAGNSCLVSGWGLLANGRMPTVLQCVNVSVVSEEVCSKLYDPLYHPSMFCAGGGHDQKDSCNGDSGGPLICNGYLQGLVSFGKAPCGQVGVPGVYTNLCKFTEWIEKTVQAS

human KLK5 = target: T3, human KLK5 (human, UniProt Q9Y337 67-293); assay: SPR (BIAcore T200), as for Table 1
T3 construct: also called huKLK5; KLK5 AMC
T3 sequence: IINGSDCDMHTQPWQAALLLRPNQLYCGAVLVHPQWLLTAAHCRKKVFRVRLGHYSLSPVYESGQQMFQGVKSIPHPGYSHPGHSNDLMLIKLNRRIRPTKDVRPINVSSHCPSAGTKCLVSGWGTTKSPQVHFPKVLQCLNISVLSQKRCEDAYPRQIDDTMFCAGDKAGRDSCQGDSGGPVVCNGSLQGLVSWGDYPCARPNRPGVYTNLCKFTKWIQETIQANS

huKLK1 = huKLK1 (human, UniProt P06870 25-262, limits assumed); assay: SPR (BIAcore T200), as for Table 1
huKLK1, sequence (P06870 25-262 limits assumed): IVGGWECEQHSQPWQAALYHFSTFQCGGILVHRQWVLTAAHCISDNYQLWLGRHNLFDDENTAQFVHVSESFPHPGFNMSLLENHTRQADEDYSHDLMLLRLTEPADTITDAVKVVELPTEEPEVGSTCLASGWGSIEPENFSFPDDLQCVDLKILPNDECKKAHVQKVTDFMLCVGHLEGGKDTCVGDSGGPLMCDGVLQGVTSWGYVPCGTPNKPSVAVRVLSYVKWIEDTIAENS

huKLK11 = target: T4, huKLK11 (human, UniProt Q9UBX7 54-282, limits assumed); assay: SPR (BIAcore T200), as for Table 1
T4 sequence (looked up): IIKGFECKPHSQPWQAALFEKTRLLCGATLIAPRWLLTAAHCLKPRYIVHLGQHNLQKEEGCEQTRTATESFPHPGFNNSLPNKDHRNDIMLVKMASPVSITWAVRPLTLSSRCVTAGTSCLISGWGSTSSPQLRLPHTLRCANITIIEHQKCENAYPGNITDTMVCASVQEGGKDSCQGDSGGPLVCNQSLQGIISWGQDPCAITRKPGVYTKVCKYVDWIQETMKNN

human KLK7 (SEQ ID NO: 4 plus a C-terminal FLAG tag), sequence (P49862 30-253): as the sequence (P49862 30-253) above
cyano KLK7 (SEQ ID NO: 6 plus a C-terminal FLAG tag), sequence (P49862 other isoform, or with tags, fused parts or gaps): as the sequence (P49862 other isoform, or with tags, fused parts or gaps) above

B1: 14H11 (antibody, V domains shown)
VH: QSLEESGGDLVKPGASLTLTCTASGFSFSSSYYMCWVRQAPGKGLEWIASIYAGSSGAPYYAGWAKGRFTISKTSSTAVTLQMSSLTAADTATYFCAREGFAETGGYGYAAYFNLWGPGTLVTVSS
VL: AIEMTQSPPSLSASVGETVRIRCLASEDIASSVSWYQQKPGKPPTLLIYGASNLESGVPPRFTGSGSGTDYTLTIGGVQAEDAATYYCLGGYSYSSTGTAFGAGTKVEIK
notes: Recombinant rabbit anti-KLK7 monoclonal antibody, expressed in Expi293 cells, protein A purified, bivalent; also called rb.14H11
[1]
  IC50, KLK7 direct functional assay (Mca peptide substrate), bivalency not accounted for: 0.15 nM
[2]
  IC50, KLK7 direct functional assay (Mca peptide substrate), bivalency not accounted for: 0.11 nM
Human KLK7
  koff: < 1e-06 s⁻¹
Cynomolgus monkey KLK7
  koff: < 1e-06 s⁻¹
huKLK4
  binding result: no binding
Human KLK5
  binding result: no binding
huKLK1
  binding result: no binding
huKLK11
  binding result: no binding
